Assay [1] addresses T1, Recombinant MICA*02 protein.
T1 construct: Coated on ELISA plates
T1 sequence (Q29983 whole entry, species assumed, looked up): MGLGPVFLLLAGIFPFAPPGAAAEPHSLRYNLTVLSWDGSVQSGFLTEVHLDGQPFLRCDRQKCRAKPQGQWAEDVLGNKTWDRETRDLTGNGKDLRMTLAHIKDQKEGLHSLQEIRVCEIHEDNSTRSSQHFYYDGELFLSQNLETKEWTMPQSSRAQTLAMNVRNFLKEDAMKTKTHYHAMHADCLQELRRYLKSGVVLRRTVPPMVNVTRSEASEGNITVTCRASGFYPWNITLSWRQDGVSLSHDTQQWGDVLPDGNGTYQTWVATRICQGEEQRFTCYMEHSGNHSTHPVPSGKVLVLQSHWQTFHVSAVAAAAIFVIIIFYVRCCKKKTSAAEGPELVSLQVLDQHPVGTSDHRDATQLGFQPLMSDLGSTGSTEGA
As to the kind of experiment: ELISA on coated recombinant antigen (1 µg/ml), goat anti-mouse IgG-HRP, OD 450 nm. As for the experimental part: (§1) Recombinant MICA*01, MICA*02, MICA*04, MICA*08, MICA*09, and MICB proteins were diluted to 1 μg/ml in 50 mM sodium carbonate buffer, pH 9.6, and coated onto high binding 96-well microplates (Corning #9018), 100 ng in 100 μl per well. The following morning, coated ELISA plates were washed three times with TBS-Tween-20, pH 7.4 and then blocked in SuperBlock T20 Blocking Buffer (Pierce #37536). After blocking, ELISA plates were washed once with TBS-T and incubated with serially diluted anti-MICA antibody ([…]) for approximately two hours at room temperature. Following the incubation, ELISA plates were washed three times with TBS-T and then incubated with Goat anti-Mouse IgG (H+L)-HRP conjugate (ThermoFisher Scientific #626520) for 45 minutes at room temperature with shaking (˜400 rpm). After the incubation, ELISA plates were washed three times with TBS-T and incubated with Super Sensitive Liquid Substrate TMB (Sigma #T4444), 100 μl per well, until color development was sufficient. The reaction was stopped with 1N sulfuric acid, 100 μl per well. Optical density (OD) values were measured at 450 nm using a microplate reader.

The target in assay [2] is T2, Recombinant MICA*04 protein.
T2 construct: Coated on ELISA plates
T2 sequence (Q29983 whole entry, species assumed, looked up): T1 sequence (Q29983 whole entry, species assumed, looked up)
Described as above. How it is done: as §1

The target in assay [3] is T3, Recombinant MICA*09 protein.
T3 construct: Coated on ELISA plates
T3 sequence (Q29983 whole entry, species assumed, looked up): T1 sequence (Q29983 whole entry, species assumed, looked up)
The description is as above. How it is done: as §1

Assay [4] addresses T4, Recombinant MICA*08 protein.
T4 construct: Coated on ELISA plates
T4 sequence (Q29983 whole entry, species assumed, looked up): T1 sequence (Q29983 whole entry, species assumed, looked up)
Described as above. How it is done:
as §1

The target in assay [5] is T5, Recombinant MICA*01 protein (Homo sapiens (Human), UniProt Q29983 24-307).
T5 construct: Coated on ELISA plates
T5 sequence: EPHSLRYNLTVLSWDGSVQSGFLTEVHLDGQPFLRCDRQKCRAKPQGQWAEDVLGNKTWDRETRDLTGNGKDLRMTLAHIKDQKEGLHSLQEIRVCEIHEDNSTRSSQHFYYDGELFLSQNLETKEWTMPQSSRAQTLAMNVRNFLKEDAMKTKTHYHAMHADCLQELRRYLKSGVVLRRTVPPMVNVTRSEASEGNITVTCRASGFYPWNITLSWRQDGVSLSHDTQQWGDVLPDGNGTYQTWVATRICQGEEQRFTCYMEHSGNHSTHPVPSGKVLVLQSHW
Described as above. As for the experimental part:
as §1

The target in the next assay is T6, Recombinant MICB protein (UniProt Q29980 23-298, limits assumed).
T6 construct: Coated on ELISA plates
T6 sequence (looked up): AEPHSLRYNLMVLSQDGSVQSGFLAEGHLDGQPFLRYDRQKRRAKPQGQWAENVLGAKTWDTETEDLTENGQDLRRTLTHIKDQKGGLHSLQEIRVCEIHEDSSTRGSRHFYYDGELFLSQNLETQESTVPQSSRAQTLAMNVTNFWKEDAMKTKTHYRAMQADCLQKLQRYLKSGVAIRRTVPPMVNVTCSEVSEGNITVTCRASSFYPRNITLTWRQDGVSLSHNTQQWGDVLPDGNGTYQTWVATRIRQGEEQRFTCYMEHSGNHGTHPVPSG
The assay is described as above. How it is done:
as §1

The target of assay [6] is MICA antigen of Table 2 (purified 6×His-MICA*08 or 6×His-MICA*04 protein). As to the kind of experiment: BLI (ForteBio Octet Red96); mAb captured on anti-mouse IgG Fc sensors, 6×His-MICA in solution, 1:1 model. As for the experimental part:
Affinity kinetics was determined on a ForteBio Octet Red96 analyzer. […] Sensors were washed in assay buffer and then incubated with purified 6×His-MICA*08 or 6×His-MICA*04 proteins (100 nM), in 2-fold dilution series for 5 minutes in assay buffer to determine association kinetics of the antibody with the protein antigen. Sensors were then incubated in assay buffer for 10 minutes to determine dissociation kinetics. The resulting kinetics parameters were calculated with ForteBio analysis suite 8.0 using a 1:1 model.

In a further assay the target is T7, human FcγRI (human, UniProt P12314 16-288, limits assumed).
T7 construct: Biacore partner; also called FcγR1
As to the kind of experiment: Biacore (SPR), receptor loaded on the chip, antibody 0.411 to 33.33 nM as analyte, 1:1 affinity analysis (FIG. 9).

A further assay addresses human FcRn (human, UniProt P55899 24-297; P61769 21-119, limits assumed). Briefly: Biacore (SPR), steady state analysis, pH 6.0; Relative Binding +++. For orientation: Surface plasmon resonance follows binding to a sensor surface in real time, without labels.
The target of another assay is T8, CD16A (176 Val) (human, UniProt P08637).
T8 construct: also called FcγRIIIA 176 Val
As to the kind of experiment: Biacore (SPR), receptor loaded on the chip, antibody as analyte, steady state analysis (FIG. 9).

The next assay has as its target T9, CD16A (176 Phe) (human, UniProt P08637).
T9 construct: also called FcγRIIIA 176Phe
The assay is described as above.

For a further assay, the target named is T10, CD32A (167His).
T10 construct: also called FcγRIIA 167His; not shown: The vendor's tag
T10 chain: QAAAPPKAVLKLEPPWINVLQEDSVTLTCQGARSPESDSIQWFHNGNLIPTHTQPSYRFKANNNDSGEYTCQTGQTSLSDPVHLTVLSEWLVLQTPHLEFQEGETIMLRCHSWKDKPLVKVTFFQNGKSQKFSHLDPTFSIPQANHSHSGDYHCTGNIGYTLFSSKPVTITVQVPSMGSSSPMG
As to the kind of experiment: Biacore (SPR), receptor loaded on the chip, antibody 296.3 to 24000 nM as analyte, steady state analysis (FIG. 9).

In a further assay the target is T11, CD32B (human, UniProt P31994).
T11 construct: also called FcγRIIB
T11 sequence (receptor, looked up): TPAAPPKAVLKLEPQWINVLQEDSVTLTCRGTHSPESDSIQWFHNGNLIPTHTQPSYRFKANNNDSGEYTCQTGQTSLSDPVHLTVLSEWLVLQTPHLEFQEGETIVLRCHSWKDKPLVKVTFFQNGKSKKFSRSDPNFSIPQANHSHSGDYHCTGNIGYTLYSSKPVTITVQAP
The assay is described as above.

T8 sequence (P08637 17-208 F176V limits assumed): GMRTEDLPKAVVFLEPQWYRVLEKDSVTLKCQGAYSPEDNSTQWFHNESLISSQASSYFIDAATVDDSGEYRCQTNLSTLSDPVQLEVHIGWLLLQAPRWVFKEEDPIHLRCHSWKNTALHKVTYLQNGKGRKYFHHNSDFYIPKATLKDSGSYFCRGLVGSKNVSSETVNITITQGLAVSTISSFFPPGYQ
T7 sequence (P12314 16-288 limits assumed): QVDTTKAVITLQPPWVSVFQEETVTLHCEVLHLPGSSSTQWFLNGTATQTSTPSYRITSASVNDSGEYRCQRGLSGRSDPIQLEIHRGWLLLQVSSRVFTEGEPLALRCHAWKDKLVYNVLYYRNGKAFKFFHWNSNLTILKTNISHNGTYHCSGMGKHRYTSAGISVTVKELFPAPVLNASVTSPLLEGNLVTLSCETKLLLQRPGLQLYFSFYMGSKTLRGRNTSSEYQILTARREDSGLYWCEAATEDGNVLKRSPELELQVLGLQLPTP
T9 sequence (P08637 17-208 limits assumed): as the sequence (P08637 17-208 F176V limits assumed) above, with V160F counted along it
Sequence of human FcRn (P55899 24-297 limits assumed, chain 1 of 2): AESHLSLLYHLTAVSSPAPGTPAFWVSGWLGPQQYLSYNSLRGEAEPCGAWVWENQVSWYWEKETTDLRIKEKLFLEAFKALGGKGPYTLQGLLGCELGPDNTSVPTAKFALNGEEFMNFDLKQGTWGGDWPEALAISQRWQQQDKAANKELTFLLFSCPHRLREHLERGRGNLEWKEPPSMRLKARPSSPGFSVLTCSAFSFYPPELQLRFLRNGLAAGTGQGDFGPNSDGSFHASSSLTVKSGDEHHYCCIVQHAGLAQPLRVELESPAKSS
Sequence of human FcRn (P61769 21-119 limits assumed, chain 2 of 2): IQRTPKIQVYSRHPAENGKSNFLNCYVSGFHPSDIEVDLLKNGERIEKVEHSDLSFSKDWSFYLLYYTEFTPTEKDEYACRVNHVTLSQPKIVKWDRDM

B1: 3F9.E4 (antibody, V domains shown)
VH: EVQLQESGEGLVKPGGSLKLSCAASGFTFSNYAMSWVRQTPEKRLEWVAYISPGGDYIYYADTVKGRFTISRDNARNTLYLQMSSLKSEDTAMYYCTTDRRHYGSYAMDYWGQGISVTVSS
VL: DIVMTQAAPSVPVTPGESVSISCRSSKSLLHSNGNTYLYWFLQRPGQSPQLLIYRMSNLASGVPDRFSGSGSGTAFTLRISRVEAEDVGVYYCMQHLEYPFTFGSGTKLEIK
notes: Mouse monoclonal: captured on anti-mouse IgG Fc sensors and detected with anti-mouse IgG; also called 3F9 antibody; anti-MICA/B mAb
Usually EC50 (read off the curve) stands for the concentration needed to bring the measured effect to its halfway point. One may read the Kd as the equilibrium constant for the complex coming apart. Low readings indicate higher affinity, high ones lower affinity. The koff is the rate constant with which the complex falls apart. As usually defined, the kon is the rate constant with which the complex forms. On to B1, for which the “EC50 (read off the curve)” value (in [1]; in assay [2]; in assay [3]; in [4]; in assay [5]; with Recombinant MICB protein) was about 0.03 µg/mL in each case. Also, the dissociation constant Kd in assay [6] stood at 1.18 nM. In assay [6], this molecule showed a koff of 0.000421 s⁻¹. Besides, the kon in assay [6] was found to be 383000 M⁻¹ s⁻¹.

B2: 16F10.C12 (antibody, V domains shown)
VH: EVQLQESGPGLVAPSQSLSITCTVSGFSLTAFGVNWVRQPPGKGLEWLGMIWGDGNTDYNSTLRSRLSISKDNSKSQVFLKLNSLQTDDTARYFCARETYYGNYAGLGYWGQGTLVTVSA
VL: QIVLTQSPAIMSASIGERVTMTCTASSSVSSNYLHWYQQKPRSSPKLWIYTTSNLASGVPTRFSGSGSGTSYSLTISSMEAEDAATYYCHQFHRSPFTFGSGTKLEIK
notes: Mouse monoclonal: captured on anti-mouse IgG Fc sensors
On to B2, for which, in assay [6], the Kd turned out to be 6.45 nM, the koff came out at 0.000548 s⁻¹ and the kon was 93300 M⁻¹ s⁻¹.

B3: anti-MICA/B 3F9H1L3L wild type antibody (antibody, human IgG1, kappa)
heavy: not shown
light: DIVMTQSPLSLPVTPGEPASISCRSSKSLLHSNLNTYLYWFLQKPGQSPQILIYRMSNLASGVPDRFSGSGSGTAFTLKISRVEAEDVGVYYCMQHLEYPFTFGPGTKLEIKRTVAAPSVFIFPPSDEQLKSGTASVVCLLNNFYPREAKVQWKVDNALQSGNSQESVTEQDSKDSTYSLSSTLTLSKADYEKHKVYACEVTHQGLSSPVTKSFNRGEC
notes: also called CLN-619; CLN619; copies: 2 + 2
With B3, the binding result in the assay with human FcγRI, with CD16A (176 Val), in the assay with CD16A (176 Phe), in the assay with CD32A (167His) and in the assay with CD32B was “binds” in each case. Further, in the assay with human FcRn, binding was characterised by a dissociation constant (Kd) of 489 nM.

B4: anti-MICA/B 3F9H1L3L afucosylated antibody (antibody, human IgG1, kappa)
heavy: not shown
light: B3 light
modifications: afucosylated Fc N-glycan (Fc glycosylation site Asn 297, EU numbering), made with GlymaxX technology
notes: It differs only by lacking fucose on the Fc glycan; also called GLYMAXX; 3F9H1L3L GLYMAXX; copies: 2 + 2
For B4, the binding result with human FcγRI, in the assay with CD16A (176 Val), with CD16A (176 Phe), in the assay with CD32A (167His) and in the assay with CD32B was “binds” throughout. In the assay with human FcRn, this molecule displayed a Kd of 468 nM.

B5: anti-MICA/B 3F9H1L3L antibody with the two heavy chain S239D and I332E mutations (antibody, human IgG1, kappa)
heavy: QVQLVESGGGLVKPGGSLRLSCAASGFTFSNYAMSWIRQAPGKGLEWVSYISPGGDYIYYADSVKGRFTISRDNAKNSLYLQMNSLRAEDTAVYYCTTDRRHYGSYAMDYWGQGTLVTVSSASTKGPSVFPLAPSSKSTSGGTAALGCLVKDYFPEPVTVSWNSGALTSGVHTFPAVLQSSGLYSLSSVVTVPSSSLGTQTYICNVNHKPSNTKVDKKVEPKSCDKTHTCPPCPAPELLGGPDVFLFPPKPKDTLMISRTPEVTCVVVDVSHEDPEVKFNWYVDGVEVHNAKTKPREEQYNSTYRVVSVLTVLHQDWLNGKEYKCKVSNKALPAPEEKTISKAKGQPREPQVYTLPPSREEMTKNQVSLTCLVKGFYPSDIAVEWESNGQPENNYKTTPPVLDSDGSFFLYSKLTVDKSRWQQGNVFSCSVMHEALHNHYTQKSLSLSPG
light: B3 light
notes: also called 3F9HIL3L S239D and I332E; CLN-619 DM; copies: 2 + 2
For B5, the binding result with human FcγRI, with CD16A (176 Val), with CD16A (176 Phe), with CD32A (167His) and in the assay with CD32B was “binds” throughout. The molecule also showed a Kd with human FcRn of 504 nM.
